According to PMC3855908 (Traffic (Copenhagen, Denmark), 2013):

Key:
[1] = biological target: T1, Pan1 (recombinantly purified, unpublished data) (yeast, UniProt P32521 1-1480)
T1 sequence (looked up): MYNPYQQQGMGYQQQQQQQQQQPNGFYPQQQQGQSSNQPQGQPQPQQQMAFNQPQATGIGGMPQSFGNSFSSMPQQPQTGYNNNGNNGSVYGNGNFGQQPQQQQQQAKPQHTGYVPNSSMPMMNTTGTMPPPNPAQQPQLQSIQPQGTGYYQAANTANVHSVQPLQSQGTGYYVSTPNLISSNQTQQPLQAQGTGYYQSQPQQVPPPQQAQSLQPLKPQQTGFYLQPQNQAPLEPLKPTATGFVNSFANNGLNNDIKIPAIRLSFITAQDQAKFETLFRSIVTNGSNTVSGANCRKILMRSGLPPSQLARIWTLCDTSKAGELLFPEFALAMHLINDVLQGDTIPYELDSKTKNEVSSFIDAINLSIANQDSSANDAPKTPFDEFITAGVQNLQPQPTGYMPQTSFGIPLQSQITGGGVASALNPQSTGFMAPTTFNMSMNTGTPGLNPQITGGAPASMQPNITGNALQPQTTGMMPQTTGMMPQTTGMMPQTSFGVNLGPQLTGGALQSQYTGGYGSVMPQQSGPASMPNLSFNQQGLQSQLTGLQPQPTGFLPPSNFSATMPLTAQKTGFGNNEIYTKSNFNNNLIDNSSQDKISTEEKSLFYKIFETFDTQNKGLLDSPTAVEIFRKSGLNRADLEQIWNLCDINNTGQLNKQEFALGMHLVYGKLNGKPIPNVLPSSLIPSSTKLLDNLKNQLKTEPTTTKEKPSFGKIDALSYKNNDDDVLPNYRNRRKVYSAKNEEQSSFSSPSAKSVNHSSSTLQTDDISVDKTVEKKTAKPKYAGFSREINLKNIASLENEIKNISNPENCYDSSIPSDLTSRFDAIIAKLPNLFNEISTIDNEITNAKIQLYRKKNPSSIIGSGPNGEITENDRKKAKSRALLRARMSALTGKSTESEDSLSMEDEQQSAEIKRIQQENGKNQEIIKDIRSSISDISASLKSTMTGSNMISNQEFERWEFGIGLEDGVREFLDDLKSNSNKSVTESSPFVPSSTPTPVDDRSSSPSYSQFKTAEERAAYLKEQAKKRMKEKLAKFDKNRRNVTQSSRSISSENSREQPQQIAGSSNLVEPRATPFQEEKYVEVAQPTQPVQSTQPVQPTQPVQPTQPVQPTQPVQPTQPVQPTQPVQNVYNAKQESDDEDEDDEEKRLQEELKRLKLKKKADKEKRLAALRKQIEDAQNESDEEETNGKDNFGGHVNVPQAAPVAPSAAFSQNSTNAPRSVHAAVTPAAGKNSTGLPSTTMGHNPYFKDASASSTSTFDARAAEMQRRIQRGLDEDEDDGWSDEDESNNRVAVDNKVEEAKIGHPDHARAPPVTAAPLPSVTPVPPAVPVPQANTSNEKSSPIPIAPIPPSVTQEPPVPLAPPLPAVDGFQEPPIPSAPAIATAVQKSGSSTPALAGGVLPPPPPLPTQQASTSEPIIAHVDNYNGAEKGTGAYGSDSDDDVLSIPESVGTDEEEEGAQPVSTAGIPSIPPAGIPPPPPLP

Gal4 DBD-Pan1^792–948 = biological target: T2, Gal4 DBD-Pan1^792–948 (yeast, UniProt P32521 792-948); test: two-hybrid
T2 sequence (looked up): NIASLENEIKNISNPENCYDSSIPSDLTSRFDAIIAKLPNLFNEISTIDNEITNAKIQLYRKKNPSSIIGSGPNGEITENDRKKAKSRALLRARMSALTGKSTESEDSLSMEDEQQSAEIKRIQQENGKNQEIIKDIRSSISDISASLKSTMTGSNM

Gal4 DBD-Pan1^687–846 = biological target: T3, Gal4 DBD-Pan1^687–846 (yeast, UniProt P32521 687-846); test: two-hybrid
T3 sequence (looked up): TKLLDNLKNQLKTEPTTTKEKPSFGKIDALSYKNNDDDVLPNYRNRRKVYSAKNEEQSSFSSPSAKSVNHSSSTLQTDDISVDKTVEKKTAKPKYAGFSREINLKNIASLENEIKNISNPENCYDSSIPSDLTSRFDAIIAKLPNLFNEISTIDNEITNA

Gal4 DBD-Pan1^687–1190 = biological target: T4, Gal4 DBD-Pan1^687–1190 (yeast, UniProt P32521 687-1190); test: two-hybrid
T4 sequence (looked up): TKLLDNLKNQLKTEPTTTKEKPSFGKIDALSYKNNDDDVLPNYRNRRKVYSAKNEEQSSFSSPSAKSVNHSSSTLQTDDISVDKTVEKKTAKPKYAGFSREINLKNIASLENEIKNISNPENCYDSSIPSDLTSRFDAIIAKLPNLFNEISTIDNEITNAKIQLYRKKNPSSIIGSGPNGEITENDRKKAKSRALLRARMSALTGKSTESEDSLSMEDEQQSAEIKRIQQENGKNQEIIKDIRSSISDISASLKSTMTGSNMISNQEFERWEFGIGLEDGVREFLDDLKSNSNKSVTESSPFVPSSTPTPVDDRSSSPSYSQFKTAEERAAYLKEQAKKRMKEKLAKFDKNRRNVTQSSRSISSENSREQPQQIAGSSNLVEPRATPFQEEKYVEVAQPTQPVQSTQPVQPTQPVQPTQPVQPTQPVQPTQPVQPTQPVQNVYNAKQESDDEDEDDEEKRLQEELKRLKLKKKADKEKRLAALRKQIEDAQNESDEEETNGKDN

B1: End3 (recombinantly purified, unpublished data) (natural protein, yeast, UniProt P39013 1-349, looked up)
chain: MPKLEQFEIKKYWQIFSGLKPIENKVNHDQVLPILYNSKLDSSVLNKIWFLADIDDDDNLDFEEFVICMRLIFDMVNKNISSVPDELPDWLIPGSKVNLIKERKKRKQIENADLPPKKEIKVDWYMSPDDLNQYEKIYNSCAKLTDGTITFNELSTKLSTKFFNISKTDLNKVWSLINPQNLPSIDRDPTFYFIHCLRQRNDLGAEIPASLPNSLAEVCNKKQLSYDLRSSQPPTKRKEEANEVDNLRDNGQNSSSDSSGSNVLSNEDSIKQKYASLTDDQVANMREQLEGLLNYKKSEKTQGGSKLSKRINIRSITDDLDNIEQQVEVLENYLNNKRHELQALQAEIN
For B1, the “stoichiometry N” value [1] was 1.

B2: Gal4 AD-End3^176–349 (domain or fragment, yeast, UniProt P39013 176-349, looked up)
chain: LINPQNLPSIDRDPTFYFIHCLRQRNDLGAEIPASLPNSLAEVCNKKQLSYDLRSSQPPTKRKEEANEVDNLRDNGQNSSSDSSGSNVLSNEDSIKQKYASLTDDQVANMREQLEGLLNYKKSEKTQGGSKLSKRINIRSITDDLDNIEQQVEVLENYLNNKRHELQALQAEIN
B2 was tested, and the “Miller Units” value (Gal4 DBD-Pan1^792–948) was 99.7 Miller Units, the “Miller Units” value (Gal4 DBD-Pan1^687–846) was 80.1 Miller Units and the “Miller Units” value (Gal4 DBD-Pan1^687–1190) was 412 Miller Units.
